Results from US20210087244A1 (UNIVERSITY OF BRITISH COLUMBIA, published 2021).

Assays:
Experiment in all cases: SPR direct binding (MASS-1), hybridoma supernatant over immobilized antigen
[1] = target: T1, cyclo(CGHHQKG)-conjugated-BSA (SEQ ID NO: 2) (bovine, UniProt P02769 25-607, head-to-tail cyclized (amide bond between N- and C-terminus); conjugated to SMCC-activated BSA)
T1 construct: also called Cyclic-Peptide; cyclic peptide-BSA
Procedure: (§1) All SPR measurements were performed using a Molecular Affinity Screening System (MASS-1) (Sierra Sensors GmbH, Hamburg, Germany), an analytical biosensor that employs high intensity laser light and high speed optical scanning to monitor binding interactions in real time. The primary screening of tissue culture supernatants was performed using an SPR direct binding assay, whereby BSA-conjugated peptides, A-beta42 Monomer and A-beta42 Oligomer are covalently immobilized on individual flow cells of a High Amine Capacity (HAC) sensorchip (Sierra Sensors GmbH, Hamburg, Germany) and antibodies flowed over the surface. Protein G purified mAbs were analyzed in a secondary screen using an SPR indirect (capture) binding assay, whereby the antibodies were captured on a protein A-derivatized sensorchip (XanTec Bioanalytics GmbH, Duesseldorf, Germany) and A-beta40 Monomer, A-beta42 Oligomer, soluble brain extracts and cerebrospinal fluid flowed over the surface. The specificity of the antibodies was verified in an SPR direct binding assay by covalently immobilizing A-beta42 Monomer and A-beta42 Oligomer on individual flow cells of a HAC sensorchip and flowing purified mAbs.
(§2) Clones were retested for their ability to bind cyclic peptide, linear peptide, A-beta 1-42 monomer and A-beta 1-42 oligomers prepared as described above. Binding assays were performed using SPR as described above (Direct binding assays).

[2] = target: T2, linear CGHHQKG-conjugated-BSA (SEQ ID NO: 2) (bovine, UniProt P02769 25-607, conjugated to BSA)
T2 construct: also called Linear-Peptide; linear peptide-BSA
T2 sequence (P02769 25-607 limits assumed): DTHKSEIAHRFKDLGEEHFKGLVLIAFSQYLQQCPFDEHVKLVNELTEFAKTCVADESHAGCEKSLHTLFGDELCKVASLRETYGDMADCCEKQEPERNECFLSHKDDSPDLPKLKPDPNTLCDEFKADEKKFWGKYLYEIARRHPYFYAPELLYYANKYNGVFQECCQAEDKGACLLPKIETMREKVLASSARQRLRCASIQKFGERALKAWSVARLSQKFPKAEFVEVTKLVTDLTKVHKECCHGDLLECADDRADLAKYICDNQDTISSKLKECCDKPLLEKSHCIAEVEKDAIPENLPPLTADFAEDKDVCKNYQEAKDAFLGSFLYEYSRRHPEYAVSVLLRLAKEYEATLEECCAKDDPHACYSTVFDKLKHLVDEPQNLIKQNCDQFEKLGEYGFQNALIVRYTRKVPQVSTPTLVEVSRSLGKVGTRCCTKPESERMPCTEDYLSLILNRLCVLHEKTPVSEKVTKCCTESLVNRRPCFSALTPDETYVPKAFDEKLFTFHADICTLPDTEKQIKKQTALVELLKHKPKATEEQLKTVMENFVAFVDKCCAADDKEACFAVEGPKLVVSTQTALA
Procedure: as §1, §2

[3] = target: T3, A-beta42 Oligomer (human)
T3 construct: also called A β 42 Oligomer; A-beta 1-42 oligomers
T3 sequence (peptide, as listed by the source): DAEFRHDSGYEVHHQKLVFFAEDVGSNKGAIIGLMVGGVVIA
Procedure: as §1, §2

T1 sequence (P02769 25-607 limits assumed): as the sequence (P02769 25-607 limits assumed) above

B1: 301-12G11 (17) (antibody, V domains shown)
VH: QVQLQQPGAELVKPGASVKMSCKASGYSFTSYWINWVKQRPGQGLEWIGDVHPGRGVSTYNAKFKSKATLTLDTSSSTAYMQLSSLTSEDSAVYYCSRSHGNTYWFFDVWGAGTTVTVSS
VL: DVLMTQTPLSLPVSLGDQASISCRSSQSIVHSNGNTYLEWYLQKPGQSPKLLIYKVSNRFSGVPDRFSGSGSGTDFTLKISRVEAEDLGVYYCFQGSHVPFTFGSGTKLEIKR
notes: they begin with a leader (MGWSC.../MKLPV...) and end with a few constant-region residues
In the case of B1, the “response units (RU)” value [1] is reported as 698 RU, the “response units (RU)” value [2] is reported as 1150 RU and the “response units (RU)” value [3] is reported as 66.8 RU.
